± gives the uncertainty stated by the source.
Assay: self-splicing fitness, log relative to wild type (ln ratio); higher = more splicing; Tetrahymena group I intron in knt gene, E. coli kanamycin selection, DiMSum; sequences stand for … in CUCUCU…GGAGGGAAAAGUUAUCAGGCAUGCACCUGGUAGCUAGUCUUUAAACCAAUAGAUUGCAUCGGUUUAAAAGGCAAGACCGUCAAAUUGCGGGAAAGGGGUCAACAGCCGUUCAGUACCAAGUCUCAGGGGAAACUUUGAGAUGGCCUUGCAAAGGGUAUGGUAAUAAGCUGACGGACAUGGUCCUAACCACGCAGCCAAGUCCUAAGUCAACAGAUCUUCUGUUGAUAUGGAUGCAGUUCACAGACUAAAUGUCGGUCGGGGAAGAUGUAUUCUUCUCAUAAGAUAUAGUCGGACCUCUCCUUAAUGGGAGCUAGCGGAUGAAGUGAUGCAACACUGGAGCCGCUGGGAACUAAUUUGUAUGCGAAAGUAUAUUGAUUAGUUUUGGAGUACUCGUGGUCG
Summary of the method: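 Colonies from six replicate transformations of E. coli BL21(DE3) were pooled and amplicon-sequenced on an Illumina HiSeq 2500. The library placed an intron with all eight P1ex-region nucleotides randomised inside the knt kanamycin-resistance gene on pET-22b(+), and cells grew overnight at 37°C or 30°C on LB agar with or without 25 μg/mL kanamycin (plus 100 μg/mL carbenicillin, 50 μM IPTG, 0.2% rhamnose). Fitness is the DiMSum error-weighted combination of wild-type-normalised replicate fold changes, kanamycin versus none.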

Sequence	self-splicing fitness (ln) (30 °C)	self-splicing fitness (ln) (37 °C)
CGCUAGCAAUAUUACGCCUA	-2.65 ± 0.25	-3.05 ± 0.28
CGCUAGCAAUAUUACGCGGA	-3.21 ± 0.17	-1.73 ± 0.099
CGCUAGCAAUAUUACGCUAA	-1.93 ± 0.22	-1.53 ± 0.25
CGCUAGCAAUAUUACGCUAU	–	-2.46 ± 0.27
CGCUAGCAAUAUUACGCUUU	-3.13 ± 0.18	-2.32 ± 0.2
CGCUAGCAAUAUUACGGAAG	-1.7 ± 0.16	0.348 ± 0.17
CGCUAGCAAUAUUACGGAGA	–	-2.2 ± 0.36
CGCUAGCAAUAUUACGGAGG	-1.78 ± 0.099	-0.655 ± 0.13
CGCUAGCAAUAUUACGGCAU	-1.89 ± 0.093	-0.622 ± 0.083
CGCUAGCAAUAUUACGGCCA	-0.309 ± 0.16	-0.364 ± 0.2
CGCUAGCAAUAUUACGGUCC	-1.48 ± 0.12	-0.153 ± 0.15
CGCUAGCAAUAUUACGGUUG	-2.07 ± 0.055	-0.803 ± 0.072
CGCUAGCAAUAUUACGGUUU	-1.69 ± 0.053	-0.856 ± 0.074
CGCUAGCAAUAUUACGUCGC	-2.3 ± 0.33	–
CGCUAGCAAUAUUACGUCUU	–	-0.855 ± 0.16
CGCUAGCAAUAUUACGUGUC	-2.34 ± 0.13	-2.78 ± 0.17
CGCUAGCAAUAUUACGUUCA	-1.39 ± 0.12	-1.68 ± 0.14
CGGAAGCAAUAUUACGACGC	–	-0.637 ± 0.37
CGGAAGCAAUAUUACGACUU	-1.28 ± 0.084	0.261 ± 0.089
CGGAAGCAAUAUUACGAGGU	-4.22 ± 0.39	-2.42 ± 0.35
CGGAAGCAAUAUUACGAUCU	-1.11 ± 0.12	-0.942 ± 0.15
CGGAAGCAAUAUUACGCUAU	-3.66 ± 0.25	-2.13 ± 0.2
CGGAAGCAAUAUUACGGAUA	-3.36 ± 0.41	-1.81 ± 0.18
CGGAAGCAAUAUUACGGCAU	-3.02 ± 0.34	-1.55 ± 0.3
CGGAAGCAAUAUUACGGCGA	-0.522 ± 0.3	–
CGGAAGCAAUAUUACGGCUC	-4.04 ± 0.25	-2.51 ± 0.24

Sequence	self-splicing fitness (ln) (30 °C)	self-splicing fitness (ln) (37 °C)
CGGAAGCAAUAUUACGGCUG	-1.79 ± 0.094	-1.36 ± 0.099
CGGAAGCAAUAUUACGGGUA	-3.4 ± 0.23	-2.07 ± 0.14
CGGAAGCAAUAUUACGGUAU	-4.04 ± 0.16	-1.95 ± 0.098
CGGAAGCAAUAUUACGGUCU	-1.38 ± 0.074	-0.791 ± 0.099
CGGAAGCAAUAUUACGUAAG	-0.619 ± 0.072	0.241 ± 0.1
CGGAAGCAAUAUUACGUACU	-0.218 ± 0.071	-0.296 ± 0.096
CGGAAGCAAUAUUACGUAUC	-3.82 ± 0.21	-2.81 ± 0.22
CGGAAGCAAUAUUACGUCAA	–	-3.55 ± 0.42
CGGAAGCAAUAUUACGUCGU	–	-2.21 ± 0.36
CGGAAGCAAUAUUACGUGGG	-3.23 ± 0.13	-2.85 ± 0.18
CGGAAGCAAUAUUACGUUAC	–	-2.57 ± 0.2
CGGAAGCAAUAUUACGUUAG	-1.41 ± 0.061	-0.697 ± 0.077
CGGCAGCAAUAUUACGAAAC	-3.19 ± 0.33	-2.93 ± 0.25
CGGCAGCAAUAUUACGAAAU	-3.82 ± 0.33	-2.76 ± 0.33
CGGCAGCAAUAUUACGAACU	-1.15 ± 0.44	-0.121 ± 0.34
CGGCAGCAAUAUUACGAUCA	-1.08 ± 0.11	-0.194 ± 0.11
CGGCAGCAAUAUUACGAUGC	-3.41 ± 0.29	-1.6 ± 0.32
CGGCAGCAAUAUUACGAUGG	-0.549 ± 0.083	-0.741 ± 0.093
CGGCAGCAAUAUUACGCAGC	-3.98 ± 0.34	-1.71 ± 0.2
CGGCAGCAAUAUUACGCAGG	-2.02 ± 0.093	-1.33 ± 0.12
CGGCAGCAAUAUUACGCCAU	-3.11 ± 0.2	-1.6 ± 0.16
CGGCAGCAAUAUUACGCCGU	-3.6 ± 0.29	-2.29 ± 0.19
CGGCAGCAAUAUUACGCGUG	-1.47 ± 0.1	-0.594 ± 0.11
CGGCAGCAAUAUUACGCUGA	-3.18 ± 0.17	-2.17 ± 0.23
CGGCAGCAAUAUUACGCUUU	-2.9 ± 0.2	-1.62 ± 0.13
CGGCAGCAAUAUUACGGAAC	-2.88 ± 0.16	-3.76 ± 0.33

Sequence	self-splicing fitness (ln) (30 °C)	self-splicing fitness (ln) (37 °C)
CGGCAGCAAUAUUACGGAAU	-5.35 ± 0.41	-1.42 ± 0.13
CGGCAGCAAUAUUACGGUAA	-2.56 ± 0.13	-2.33 ± 0.13
CGGCAGCAAUAUUACGUAAA	-2.71 ± 0.12	-1.84 ± 0.12
CGGCAGCAAUAUUACGUACG	-3.05 ± 0.17	-1.31 ± 0.16
CGGCAGCAAUAUUACGUCCA	-0.34 ± 0.1	-0.521 ± 0.14
CGGCAGCAAUAUUACGUGAA	-2.25 ± 0.11	-1.65 ± 0.15
CGGCAGCAAUAUUACGUGAU	-3.11 ± 0.12	-1.57 ± 0.13
CGGCAGCAAUAUUACGUGGC	-3.19 ± 0.33	-2.02 ± 0.23
CGGCAGCAAUAUUACGUUCG	–	-1.23 ± 0.16
CGGGAGCAAUAUUACGAAUC	–	-0.75 ± 0.23
CGGGAGCAAUAUUACGACGU	-3.47 ± 0.33	-1.16 ± 0.18
CGGGAGCAAUAUUACGAGCU	-3.18 ± 0.41	-1.89 ± 0.38
CGGGAGCAAUAUUACGAGGA	-4.2 ± 0.39	-2.53 ± 0.28
CGGGAGCAAUAUUACGAGGU	-4.39 ± 0.39	-2.18 ± 0.31
CGGGAGCAAUAUUACGAUCA	–	-1.75 ± 0.43
CGGGAGCAAUAUUACGCACG	-1.33 ± 0.31	–
CGGGAGCAAUAUUACGCUAA	-2.62 ± 0.43	–
CGGGAGCAAUAUUACGCUAG	-2.57 ± 0.27	-1.27 ± 0.35
CGGGAGCAAUAUUACGCUCG	–	-0.772 ± 0.32
CGGGAGCAAUAUUACGGAUG	-3.1 ± 0.23	-2.75 ± 0.26
CGGGAGCAAUAUUACGGGCC	-1.81 ± 0.21	–
CGGGAGCAAUAUUACGUCGG	-2.52 ± 0.14	-1.66 ± 0.15
CGGGAGCAAUAUUACGUCUA	-1.89 ± 0.21	-1.82 ± 0.21
CGGGAGCAAUAUUACGUGGU	-3.52 ± 0.2	-2.46 ± 0.19
CGGUAGCAAUAUUACGAAAU	-2.91 ± 0.21	-3.07 ± 0.37
CGGUAGCAAUAUUACGACAA	-2 ± 0.21	0.305 ± 0.1

Sequence	self-splicing fitness (ln) (30 °C)	self-splicing fitness (ln) (37 °C)
CGGUAGCAAUAUUACGACCC	0.488 ± 0.48	-1.29 ± 0.44
CGGUAGCAAUAUUACGACUU	-0.479 ± 0.094	0.365 ± 0.11
CGGUAGCAAUAUUACGAGUA	–	-1.32 ± 0.4
CGGUAGCAAUAUUACGAUGG	-0.774 ± 0.1	0.646 ± 0.14
CGGUAGCAAUAUUACGCACC	–	-0.162 ± 0.39
CGGUAGCAAUAUUACGCAGU	-4.22 ± 0.22	-2.63 ± 0.16
CGGUAGCAAUAUUACGCCCU	0.24 ± 0.19	0.785 ± 0.29
CGGUAGCAAUAUUACGCUUG	-2.07 ± 0.14	-0.206 ± 0.14
CGGUAGCAAUAUUACGGUGU	-3.24 ± 0.17	-2.04 ± 0.17
CGGUAGCAAUAUUACGUACA	-1.51 ± 0.14	-0.643 ± 0.19
CGGUAGCAAUAUUACGUAGG	-0.647 ± 0.051	0.647 ± 0.08
CGGUAGCAAUAUUACGUCGA	-2.09 ± 0.23	-0.214 ± 0.16
CGGUAGCAAUAUUACGUGCG	-1.41 ± 0.12	-0.87 ± 0.12
CGGUAGCAAUAUUACGUUAG	0.11 ± 0.074	0.0358 ± 0.097
CGUAAGCAAUAUUACGACGU	-2.15 ± 0.15	-0.981 ± 0.15
CGUAAGCAAUAUUACGAGCC	–	-1.87 ± 0.22
CGUAAGCAAUAUUACGAGCG	-1.02 ± 0.11	-2.67 ± 0.24
CGUAAGCAAUAUUACGAGGC	-3.73 ± 0.32	-1.99 ± 0.29
CGUAAGCAAUAUUACGAUAU	-2.95 ± 0.14	-2.77 ± 0.2
CGUAAGCAAUAUUACGAUCA	-1.17 ± 0.11	-0.755 ± 0.12
CGUAAGCAAUAUUACGAUGA	-3.44 ± 0.34	–
CGUAAGCAAUAUUACGCACU	-2.27 ± 0.24	-1.6 ± 0.18
CGUAAGCAAUAUUACGCAGU	-3.05 ± 0.2	-2.64 ± 0.34

— the supplement of paper PMC7877785
